Experimental data published in paper PMC5318895, “Inhibition of N1-Src kinase by a specific SH3 peptide ligand reveals a role for N1-Src in neurite elongation by L1-CAM” (Scientific Reports, 2017).
No end group written: not given here.

Columns and labels:
N1-Src [1] = biological target: T1, N1-Src (Rattus norvegicus, UniProt Q9WUD9); test: co-immunoprecipitation of N1-Src-FLAG and CFP-PDN1 from COS7 cells; assay type: binding; set-up: His; made in house; host or cells: E. coli; details: COS7 cells co-transfected with N1-Src-FLAG, lysed after 48 h; anti-FLAG IP, anti-GFP detection
N1-Src [2] = biological target: T1, N1-Src; test: morphology of COS7 cells transfected with N1-Src-FLAG; assay type: cell-based; details: for effect on N1-Src-induced shrinkage of the cell soma (cell area) / effect on number of neurites (processes) per cell: COS7, co-transfection with N1-Src-FLAG 48 h, mean, n = 3 experiments, one way ANOVA
Description: (§1) Previous studies have shown that soluble SH3 ligands can enhance Src family kinase activity in vitro[20][21]. […] This experiment raised the possibility that PDN1 could act as an N1-Src inhibitor in cells. […] We observed that COS7 cells transfected with N1-Src-FLAG underwent a striking change in morphology within 48 h (Fig. 3a). Similar to that previously observed in Xenopus epithelial cells, overexpression of the kinase induced the growth of neurite-like processes (Fig. 3b) and an approximate 35% reduction in area of the cell soma (Fig. 3c). […] Using cell morphology as a readout, we assessed the effect of CFP-PDN1 and PDN1(P5A) on N1-Src activity in cells. […] Furthermore, the peptides had no significant effect upon the morphology of C-Src transfected cells. We also assessed the effect of PDN1 on N2-Src expressing cells because the first five amino acids of its SH3 insert are identical to that in N1-Src[3].
Figure 3 CFP-PDN1 inhibits the biological activity of N1-Src in cells. (a) COS7 cells were transfected for 48 h with empty plasmid (FLAG), C-, N1- or N2-Src-FLAG in combination with CFP, CFP-PDN1 or CFP-PDN1(P5A) and processed for immunofluorescence (green = CFP, red = Src-FLAG). Scale bar = 10 μm. Twenty representative fields of view (~50 cells) per condition in each experiment were analysed to quantify (b) number of processes per cell and (c). Data were plotted as mean ± SEM (n = 3 experiments). Statistical analysis was performed by one way ANOVA and post-hoc Tukey test (*P < 0.05; ***P < 0.001; n.s = not significant).
COS7 cells were plated at a density of 3 × 10^4 cells per well of a 24 well plate or 10^5 cells per well of a 6 well plate and transfected using EcoTransfect 24 h after plating according to the manufacturer’s instructions (Oz Biosciences, Marseille, France). Rat cerebellar granule and hippocampal neurons were prepared as previously described[40][41] and approved by the Biology Ethics Committee, University of York. The animals were euthanised according to Schedule 1 of the UK Home Office Animals (Scientific Procedures) Act. Neurons were plated at a density of 2.5 × 10^5 cells per coverslip and transfected after 24 h using a calcium phosphate kit (Promega, Southampton, UK) or Lipofectamine2000 (Invitrogen, Paisley UK) according to the manufacturer’s instructions. Following transfection the medium was replaced with MEM culture medium with 10 μM arabinofuranosyl cytidine for the indicated time before fixing for staining and morphological analysis. For L1-CAM assays, a 10 μl droplet containing 25 μg/ml L1-CAM extracellular domain (R&D Systems) and 1 mg/ml fluorescein isothiocyanate (FITC) was spotted onto the centre of a poly-D-lysine coated coverslip and air dried for 1 h prior to plating neurons.
Analysis of COS7 cell area was performed with ImageJ software. The NeuronJ plugin[43] was used for the quantification of process length and branching in both COS7 cells and neurons. Where appropriate, statistical analyses of the data were performed with SigmaPlot software using one way ANOVA or Kruskal-Wallis tests with post-hoc pairwise comparisons by Tukey or Dunn tests respectively.

[3] = system: cerebellar granule neurons; test: L1-CAM-dependent neurite elongation in cultured cerebellar granule neurons; assay type: cell-based, rat; details: n = 3 experiments
Source text: A previous study of Src^−/− mice provided a possible mechanism for the effects of N1-Src upon neurite development. […] Src^−/− mice lack C-, N1- and N2-Src, but the isoform responsible for the impaired neurite outgrowth on L1-CAM was not identified in the study. We therefore investigated whether PDN1 affects L1-CAM-dependent neurite growth in cultured CGNs. Recombinant L1-CAM extracellular domain mixed with the fluorescent dye FITC were spotted in the centre of poly-D-lysine (polyLys) coated glass coverslips (Fig. 6a). CGNs were then plated over the whole surface of the coverslip, allowing a direct comparison between neurons growing on L1-CAM and polyLys.
Figure 6 PDN1 inhibits neurite elongation mediated by L1-CAM. (a) Schematic of the poly-D-lysine (polyLys) coated coverslips treated with a droplet of L1-CAM and FITC. […] (b) Cultured cerebellar granule neurons transfected with CFP were grown on the indicated concentrations of L1-CAM and the length of the longest neurite (axon) determined. (c,d) CGNs were plated on polyLys coated coverslips with a region of […] L1-CAM (see a) and transfected after 24 h with CFP (control) or CFP-PDN1 for 48 h prior to fixing and processing for fluorescence microscopy. Length of longest neurite (c) and branches on the longest neurite (d) were quantified for neurons in the polyLys or L1-CAM regions using the NeuronJ plugin for ImageJ. All data were plotted as mean ± SEM, n = 3 experiments with 30 cells analysed per condition for each experiment. Statistical analysis was performed by one way ANOVA and post-hoc Tukey test (*P < 0.05; **P < 0.01; n.s = not significant).
Using a concentration of 25 μg/ml L1-CAM, which induced a 50% increase in neurite length, we then determined the effect of CFP-PDN1 transfection on neurite length on L1-CAM or polyLys. […]
(§2) Analysis of COS7 cell area was performed with ImageJ software. The NeuronJ plugin[43] was used for the quantification of process length and branching in both COS7 cells and neurons. […]

[4] = system: cerebellar granule neurons; test: neurite outgrowth of cultured cerebellar granule neurons (polyLys); assay type: cell-based, rat; details: n = 3 experiments, 30 cells per condition
Description: We next took advantage of the specificity of PDN1 to investigate the role of endogenous N1-Src in neurite outgrowth in cultured neurons. CFP-PDN1 or -PDN1(P5A) was transfected into 1 DIV CGNs and their morphology analysed after […]. During CGN development in vivo and immediately after plating in vitro, the cells grow two processes before polarising to yield a single axon and the second process retracts to become a dendrite and further dendrites are initiated. The axon then extends further before bifurcating. […] To further confirm that N1-Src regulates neurite growth we employed an shRNA expressing plasmid (pSUPER-GFP) to knockdown N1-Src in neurons. […] The successful N1-Src shRNA plasmid was transfected into hippocampal neurons, and the length of the longest neurite in GFP-positive neurons was assessed at 48 h and 96 h post-transfection. […] Thus, perturbing N1-Src activity with PDN1 or knockdown of the protein produces the same neurite phenotype in primary neuronal cultures.
Figure 4 PDN1 inhibits neurite growth in cultured neurons. (a) Cultured cerebellar granule neurons were transfected 24 h after plating with CFP, CFP-PDN1 or CFP-PDN1(P5A) for 48 h prior to fixing and processing for immunofluorescence. Scale bar = 10 μm. (b,c) Length of longest neurite and branches per longest neurite were quantified using the NeuronJ plugin for ImageJ. Data were plotted as mean ± SEM, n = 3 experiments with 30 cells analysed per condition for each experiment. Statistical analysis was performed by one way ANOVA and post-hoc Tukey test (*P < 0.05; ***P < 0.001; n.s = not significant).
COS7 cells were plated at a density of 3 × 10^4 cells per well of a 24 well plate or 10^5 cells per well of a 6 well plate and transfected using EcoTransfect 24 h after plating according to the manufacturer’s instructions (Oz Biosciences, Marseille, France). […]
as §2

N2-Src = test: morphology of COS7 cells transfected with N2-Src-FLAG; assay type: cell-based; details: COS7, co-transfection with N2-Src-FLAG 48 h; n = 3 experiments
Description: as §1
Figure 3 CFP-PDN1 inhibits the biological activity of N1-Src in cells. […] Twenty representative fields of view (~50 cells) per condition in each experiment were analysed to quantify (b) number of processes per cell and (c). […]
as §2

N1-Src [5] = biological target: T1, N1-Src; test: inhibition of N1-Src phosphorylation of GST-Y by free soluble peptide; assay type: biochemical; set-up: His; made in house; host or cells: E. coli; details: free soluble peptide titrated with 5 nM N1-Src and GST-Y; phosphotyrosine immunoblot densitometry; n = 3
Description: Previous studies have shown that soluble SH3 ligands can enhance Src family kinase activity in vitro[20][21]. […] This experiment raised the possibility that PDN1 could act as an N1-Src inhibitor in cells. […] We observed that COS7 cells transfected with N1-Src-FLAG underwent a striking change in morphology within 48 h (Fig. 3a). Similar to that previously observed in Xenopus epithelial cells, overexpression of the kinase induced the growth of neurite-like processes (Fig. 3b) and an approximate 35% reduction in area of the cell soma (Fig. 3c). […] Using cell morphology as a readout, we assessed the effect of CFP-PDN1 and PDN1(P5A) on N1-Src activity in cells. […] We also assessed the effect of PDN1 on N2-Src expressing cells because the first five amino acids of its SH3 insert are identical to that in N1-Src[3].
Figure 2 PDN1 inhibits N1-Src activity in vitro. GST-Y was incubated with 5 nM N1-Src and the indicated concentrations of either PDN1 or PDN1(P5A) and the extent of phosphorylation determined by densitometry of phosphotyrosine immunoreactivity. […]
Phosphorylation reactions were performed as previously described, prepared in kinase reaction buffer (100 mM Tris, 10 mM MgCl2, pH 7.5) and initiated by the addition of pre-warmed ATP (0.5 mM final concentration) and incubated at 30 °C for the indicated times. […] Due to the non-quantitative measurement of V, Vmax was not determined. […]

[6] = CGNs transfected with CFP fusions, one way ANOVA

Molecule: CFP-PDN1(P5A): PDN1(P5A) mutant fused to CFP, expressed in transfected cells (WHRMAAYTAKYP; also: fused to CFP, end not given here)
- binding to N1-Src in cells (co-immunoprecipitation) (N1-Src [1]): greatly reduced
- effect on N1-Src-induced shrinkage of the cell soma (cell area) (N1-Src [2]): no significant effect on either parameter
- effect on number of neurites (processes) per cell (N1-Src [2]): no significant effect on either parameter

Molecule: CFP-PDN1: PDN1 fused to CFP, expressed in transfected cells (WHRMPAYTAKYP; also: fused to CFP, end not given here)
- binding to N1-Src in cells (co-immunoprecipitation) (N1-Src [1]): can bind N1-Src in cells
- length of longest neurite on L1-CAM compared with polyLys ([3]; CFP-PDN1 transfected CGNs on L1-CAM (25 μg/ml in text), 48 h, 30 cells per condition): not significantly different to that on polyLys
- effect on N1-Src-induced shrinkage of the cell soma (cell area) (N1-Src [2]): prevented both the shrinkage of the cell soma
- effect on number of neurites (processes) per cell (N1-Src [2]): reduced the number of neurites per cell
- selectivity for N1-Src in cells (N1-Src [2]; COS7, compared with C-Src and N2-Src): selective for the N1-Src splice variant in cells
- inhibition of mean length of longest neurite on polyLys ([4]; CGNs grown on polyLys, transfected 24 h after plating, 48 h): approximately 40%
- branches per longest neurite [4, 6]: longest neurite branching was inhibited
- length of longest neurite [4, 6]: reduced in length
- rescue of morphology of N2-Src transfected cells (N2-Src): did not rescue wild type morphology

Molecule: PDN1(P5A): PDN1(P5A) mutant peptide (WHRMAAYTAKYP)
- inhibition of GST-Y phosphorylation (N1-Src [5]): no significant inhibition

B1: L1-CAM: Recombinant L1-CAM extracellular domain (R&D Systems) (protein, UniProt P32004 20-1120, looked up)
extracellular domain: IQIPEEYEGHHVMEPPVITEQSPRRLVVFPTDDISLKCEASGKPEVQFRWTRDGVHFKPKEELGVTVYQSPHSGSFTITGNNSNFAQRFQGIYRCFASNKLGTAMSHEIRLMAEGAPKWPKETVKPVEVEEGESVVLPCNPPPSAEPLRIYWMNSKILHIKQDERVTMGQNGNLYFANVLTSDNHSDYICHAHFPGTRTIIQKEPIDLRVKATNSMIDRKPRLLFPTNSSSHLVALQGQPLVLECIAEGFPTPTIKWLRPSGPMPADRVTYQNHNKTLQLLKVGEEDDGEYRCLAENSLGSARHAYYVTVEAAPYWLHKPQSHLYGPGETARLDCQVQGRPQPEVTWRINGIPVEELAKDQKYRIQRGALILSNVQPSDTMVTQCEARNRHGLLLANAYIYVVQLPAKILTADNQTYMAVQGSTAYLLCKAFGAPVPSVQWLDEDGTTVLQDERFFPYANGTLGIRDLQANDTGRYFCLAANDQNNVTIMANLKVKDATQITQGPRSTIEKKGSRVTFTCQASFDPSLQPSITWRGDGRDLQELGDSDKYFIEDGRLVIHSLDYSDQGNYSCVASTELDVVESRAQLLVVGSPGPVPRLVLSDLHLLTQSQVRVSWSPAEDHNAPIEKYDIEFEDKEMAPEKWYSLGKVPGNQTSTTLKLSPYVHYTFRVTAINKYGPGEPSPVSETVVTPEAAPEKNPVDVKGEGNETTNMVITWKPLRWMDWNAPQVQYRVQWRPQGTRGPWQEQIVSDPFLVVSNTSTFVPYEIKVQAVNSQGKGPEPQVTIGYSGEDYPQAIPELEGIEILNSSAVLVKWRPVDLAQVKGHLRGYNVTYWREGSQRKHSKRHIHKDHVVVPANTTSVILSGLRPYSSYHLEVQAFNGRGSGPASEFTFSTPEGVPGHPEALHLECQSNTSLLLRWQPPLSHNGVLTGYVLSYHPLDEGGKGQLSFNLRDPELRTHNLTDLSPHLRYRFQLQATTKEGPGEAIVREGGTMALSGISDFGNISATAGENYSVVSWVPKEGQCNFRFHILFKALGEEKGGASLSPQYVSYNQSSYTQWDLQPDTDYEIHLFKERMFRHQMAVKTNGTGRVRLPPAGFATE
modifications: extracellular domain
- increase in neurite length by L1-CAM ([3]; 25 μg/ml L1-CAM coating, CFP-transfected CGNs): 50%
- neurite outgrowth on L1-CAM ([3]; CFP-transfected CGNs on indicated L1-CAM concentrations): increases neurite outgrowth in a dose dependent manner
